Results as given in patent publication CN114605532A (BEIJING FIRST BIOCHEMICAL PHARMACEUTICAL LTD COMPANY, dated 2022).

Target: 抗原(bs-0107P)
Assay: indirect ELISA, antigen bs-0107P coated at 2 μg/ml (0.2 μg/well), purified antibody in serial dilution, HRP goat anti-mouse IgG, OD450

Chain of 抗原(bs-0107P) (P05067 672-713): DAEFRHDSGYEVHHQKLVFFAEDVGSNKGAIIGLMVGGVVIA

EC50: 0.0237 nM
B1: 抗β-淀粉样蛋白单克隆抗体7D10-1E6 (antibody, V domains shown)
VH: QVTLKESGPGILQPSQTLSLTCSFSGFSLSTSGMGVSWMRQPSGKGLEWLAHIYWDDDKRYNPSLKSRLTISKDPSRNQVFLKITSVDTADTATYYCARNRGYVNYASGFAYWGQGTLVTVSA
VL: DVLMTQTPLSLPVSLGDQASISCRSSQSIVHSNGNTYLEWYLQKPGQSPKLLIYKVSNRFSGVPDRFSGSGSGTDFILKINRVEAEDLGVYYCFQGSHVPLTFGAGTKLELK
